Measurements from patent publication US5618696A, “Human kunitz-type protease inhibitor and variants thereof” (Novo Nordisk A/S, priority 1992, dated 1997).
Numbering of substitutions follows the chain as printed. Numbers in names are those of the source. Where no end group is shown, it is not given here.

Experiments:
[1] = Net charge of the inhibitor; assay type: physicochemical
[2] = molecular target: plasmakallikrein (Homo sapiens, UniProt P03952); details: cited from earlier work
[3] = high doses, including cardiopulmonary bypass operations; cited from earlier work
[4] = molecular target: T1, granulocyte elastase (Homo sapiens, UniProt P08246); details: cited from earlier work
T1 sequence (P08246 30-267): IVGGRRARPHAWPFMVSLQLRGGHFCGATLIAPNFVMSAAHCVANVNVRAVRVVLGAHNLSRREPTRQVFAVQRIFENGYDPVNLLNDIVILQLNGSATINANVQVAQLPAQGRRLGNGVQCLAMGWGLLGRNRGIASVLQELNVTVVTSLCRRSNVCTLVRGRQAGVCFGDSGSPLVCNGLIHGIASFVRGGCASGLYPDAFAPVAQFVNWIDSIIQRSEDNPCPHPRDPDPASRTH

[5] = test system: collagenase; details: cited from earlier work
[6] = molecular target: T2, bovine chymotrypsin (TLCK treated) (Bos taurus, UniProt P00766); assay: Inhibition of chymotrypsin by HKIB9 variants; assay type: biochemical; details: at 1 μM
T2 construct: purchased Sigma Chemical Co. (St. Louis, Mo., U.S.A.)
Method: (§1) Their concentration was determined from the absorbance at 214 nm using aprotinin as a standard. Porcine trypsin was obtained from Novo Nordisk A/S, bovine chymotrypsin (TLCK treated) was obtained from Sigma Chemical Co. (St. Louis, Mo., U.S.A.). Human neutrophil cathepsin G and elastase were purified from extracts of PMNs according to the method described by Baugh and Travis, Biochemistry 15, 1976, pp. 836-843.
(§2) Peptidyl nitroanilide substrates S2251 and S2586 were obtained from Kabi (Stockholm, Sweden). S7388 and M4765 were obtained from Sigma Chemical Co.
(§3) Serine proteinases were incubated with various concentrations of the variants for 30 minutes. Substrate was then added and residual proteinase activity was measured at 405 nm.

[7] = molecular target: T3, Porcine trypsin (Sus scrofa, UniProt P00761); assay: Inhibition of trypsin by HKIB9 variants; assay type: biochemical; details: at 1 μM
T3 construct: purchased Novo Nordisk A/S
T3 sequence (P00761 9-231): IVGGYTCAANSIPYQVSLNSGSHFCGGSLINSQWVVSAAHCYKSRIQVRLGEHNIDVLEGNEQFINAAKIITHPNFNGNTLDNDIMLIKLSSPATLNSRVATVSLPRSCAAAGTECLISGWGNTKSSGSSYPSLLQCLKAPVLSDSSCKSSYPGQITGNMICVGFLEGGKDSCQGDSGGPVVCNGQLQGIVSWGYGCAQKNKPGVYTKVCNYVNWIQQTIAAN
Method: as §1, §2, §3

[8] = molecular target: T4, Human neutrophil cathepsin G (Homo sapiens, UniProt P08311); assay: Inhibition of cathepsin G by HKIB9 variants; assay type: biochemical; details: at 1 μM
T4 construct: Human neutrophil cathepsin G and elastase were purified from extracts of PMNs; from tissue; host or cells: human polymorphonuclear leukocytes (PMNs), method of Baugh and Travis
T4 sequence (P08311 21-255): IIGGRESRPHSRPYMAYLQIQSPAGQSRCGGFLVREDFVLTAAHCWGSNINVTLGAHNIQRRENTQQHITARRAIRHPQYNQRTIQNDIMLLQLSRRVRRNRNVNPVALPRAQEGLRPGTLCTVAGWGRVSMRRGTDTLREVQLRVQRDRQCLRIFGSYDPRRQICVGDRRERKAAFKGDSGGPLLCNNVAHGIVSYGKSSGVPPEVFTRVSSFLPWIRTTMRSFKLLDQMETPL
Method: as §1, §2, §3

[9] = molecular target: bovine chymotrypsin (TLCK treated) (bovine) (UniProt P00766)
[10] = molecular target: Human neutrophil elastase (human, UniProt P08246); assay: enzyme inhibition: proteinase incubated with various concentrations of the variant for 30 min, residual activity on peptidyl nitroanilide substrate at 405 nm
Method: as §3

Sequence of plasmakallikrein (P03952 20-638, species assumed): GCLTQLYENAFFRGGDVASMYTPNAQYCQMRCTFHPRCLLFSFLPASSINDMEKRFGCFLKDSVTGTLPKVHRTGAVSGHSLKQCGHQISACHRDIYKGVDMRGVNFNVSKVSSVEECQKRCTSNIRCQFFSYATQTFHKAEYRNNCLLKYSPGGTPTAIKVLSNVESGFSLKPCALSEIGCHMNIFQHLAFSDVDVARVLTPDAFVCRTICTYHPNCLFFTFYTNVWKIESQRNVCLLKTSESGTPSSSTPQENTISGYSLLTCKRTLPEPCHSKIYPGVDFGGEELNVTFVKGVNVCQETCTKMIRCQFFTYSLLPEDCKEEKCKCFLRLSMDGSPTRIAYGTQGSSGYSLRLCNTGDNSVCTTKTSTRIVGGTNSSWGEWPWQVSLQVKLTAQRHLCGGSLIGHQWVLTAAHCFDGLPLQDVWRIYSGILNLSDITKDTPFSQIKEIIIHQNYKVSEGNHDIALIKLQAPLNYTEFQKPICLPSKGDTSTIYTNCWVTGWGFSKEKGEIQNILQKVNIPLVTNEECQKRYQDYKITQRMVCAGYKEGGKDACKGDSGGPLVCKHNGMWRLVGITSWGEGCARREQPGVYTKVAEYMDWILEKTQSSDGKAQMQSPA

Q: Which net charge [1] does the source give for “HKI B9: novel human Kunitz-type protease inhibitor domain, SEQ ID No. 1, produced from yeast strain KFN-1830 (DLLPNVCAFPMEKGPCQTYMTRWFFNFETGECELFAYGGCGGNSNNFLRKEKCEKFCKFT)” here?
A: Its net charge is “zero”.

Q: Which plasmakallikrein inhibitory effect [2] does the source give for aprotinin (3-58, Arg15, Ala17, Ser42) here?
A: Its plasmakallikrein inhibitory effect is “excellent”.

Q: With aprotinin [reference compound] as the molecule, how does the net charge [1] read?
A: The net charge was “strongly positive”.

Q: What about the “blood loss in connection with cardiac surgery” value [3] of the same molecule?
A: The value was “significantly reduces blood loss”.

Q: For aprotinin(1-58, Val15), which “effect on / selectivity for granulocyte elastase” value [4] is on record?
A: The value was “relatively high selectivity”.

Q: And the effect on collagenase [5]?
A: The effect on collagenase was “inhibitory effect”.

Q: Which inhibition of chymotrypsin [6] does the source give for “[Q15V, T16G]-HKIB9 (DLLPNVCAFPMEKGPCVGYMTRWFFNFETGECELFAYGGCGGNSNNFLRKEKCEKFCKFT) [KFN 1902, HKIB9 Kunitz domain variant produced from yeast strain KFN-1902 (plasmid pKFN-1892)]” here?
A: Its inhibition of chymotrypsin is 5%.

Q: What about the inhibition of trypsin [7] of the same molecule?
A: The inhibition of trypsin was “not to inhibit”.

Q: What about the “inhibition of cathepsin G” value [8] of the same molecule?
A: The value was “not to inhibit”.

Q: For aprotinin (1-58, Ala15), which “effect on / selectivity for granulocyte elastase” value [4] is on record?
A: Its value is “weak effect”.

Q: With “[Q15V, T16A]-HKIB9 (DLLPNVCAFPMEKGPCVAYMTRWFFNFETGECELFAYGGCGGNSNNFLRKEKCEKFCKFT) [KFN 1930, HKIB9 Kunitz domain variant produced from yeast strain KFN-1930 (plasmid pKFN-1916)]” as the molecule, how does the inhibition of chymotrypsin [6] read?
A: The inhibition of chymotrypsin was 5%.

Q: What about the inhibition of trypsin [7] of the same molecule?
A: Its inhibition of trypsin is “not to inhibit”.

Q: What about the “inhibition of cathepsin G” value [8] of the same molecule?
A: The value was “not to inhibit”.

B1: [Q15V, T16G]-HKIB9 (other)
chain: DLLPNVCAFPMEKGPCVGYMTRWFFNFETGECELFAYGGCGGNSNNFLRKEKCEKFCKFT
modifications: ends and bridges not checked; cysteine pairing not given here
Q: For B1, which residual proteinase activity measured at 405 nm [9] is on record?
A: The residual proteinase activity measured at 405 nm was 5%.

Q: And the Ki [10]?
A: The Ki was 140 nM.

B2: [Q15V, T16A]-HKIB9 (other)
chain: B1 chain with G18A
modifications: ends and bridges not checked; cysteine pairing not given here
Q: Which residual proteinase activity measured at 405 nm [9] does the source give for B2 here?
A: Its residual proteinase activity measured at 405 nm is 5%.

Q: And the Ki [10]?
A: The Ki was 64 nM.
